Legend:
[1] = biological target: GST-dynein_(331 kDa) (S. cerevisiae) (UniProt P36022)
[2] = biological target: GST-dynein_(331 kDa) (S. cerevisiae) (UniProt P36022); remark: listed apart in the source

GST-dynein_(331 kDa) (S. cerevisiae), sequence (P36022 whole entry): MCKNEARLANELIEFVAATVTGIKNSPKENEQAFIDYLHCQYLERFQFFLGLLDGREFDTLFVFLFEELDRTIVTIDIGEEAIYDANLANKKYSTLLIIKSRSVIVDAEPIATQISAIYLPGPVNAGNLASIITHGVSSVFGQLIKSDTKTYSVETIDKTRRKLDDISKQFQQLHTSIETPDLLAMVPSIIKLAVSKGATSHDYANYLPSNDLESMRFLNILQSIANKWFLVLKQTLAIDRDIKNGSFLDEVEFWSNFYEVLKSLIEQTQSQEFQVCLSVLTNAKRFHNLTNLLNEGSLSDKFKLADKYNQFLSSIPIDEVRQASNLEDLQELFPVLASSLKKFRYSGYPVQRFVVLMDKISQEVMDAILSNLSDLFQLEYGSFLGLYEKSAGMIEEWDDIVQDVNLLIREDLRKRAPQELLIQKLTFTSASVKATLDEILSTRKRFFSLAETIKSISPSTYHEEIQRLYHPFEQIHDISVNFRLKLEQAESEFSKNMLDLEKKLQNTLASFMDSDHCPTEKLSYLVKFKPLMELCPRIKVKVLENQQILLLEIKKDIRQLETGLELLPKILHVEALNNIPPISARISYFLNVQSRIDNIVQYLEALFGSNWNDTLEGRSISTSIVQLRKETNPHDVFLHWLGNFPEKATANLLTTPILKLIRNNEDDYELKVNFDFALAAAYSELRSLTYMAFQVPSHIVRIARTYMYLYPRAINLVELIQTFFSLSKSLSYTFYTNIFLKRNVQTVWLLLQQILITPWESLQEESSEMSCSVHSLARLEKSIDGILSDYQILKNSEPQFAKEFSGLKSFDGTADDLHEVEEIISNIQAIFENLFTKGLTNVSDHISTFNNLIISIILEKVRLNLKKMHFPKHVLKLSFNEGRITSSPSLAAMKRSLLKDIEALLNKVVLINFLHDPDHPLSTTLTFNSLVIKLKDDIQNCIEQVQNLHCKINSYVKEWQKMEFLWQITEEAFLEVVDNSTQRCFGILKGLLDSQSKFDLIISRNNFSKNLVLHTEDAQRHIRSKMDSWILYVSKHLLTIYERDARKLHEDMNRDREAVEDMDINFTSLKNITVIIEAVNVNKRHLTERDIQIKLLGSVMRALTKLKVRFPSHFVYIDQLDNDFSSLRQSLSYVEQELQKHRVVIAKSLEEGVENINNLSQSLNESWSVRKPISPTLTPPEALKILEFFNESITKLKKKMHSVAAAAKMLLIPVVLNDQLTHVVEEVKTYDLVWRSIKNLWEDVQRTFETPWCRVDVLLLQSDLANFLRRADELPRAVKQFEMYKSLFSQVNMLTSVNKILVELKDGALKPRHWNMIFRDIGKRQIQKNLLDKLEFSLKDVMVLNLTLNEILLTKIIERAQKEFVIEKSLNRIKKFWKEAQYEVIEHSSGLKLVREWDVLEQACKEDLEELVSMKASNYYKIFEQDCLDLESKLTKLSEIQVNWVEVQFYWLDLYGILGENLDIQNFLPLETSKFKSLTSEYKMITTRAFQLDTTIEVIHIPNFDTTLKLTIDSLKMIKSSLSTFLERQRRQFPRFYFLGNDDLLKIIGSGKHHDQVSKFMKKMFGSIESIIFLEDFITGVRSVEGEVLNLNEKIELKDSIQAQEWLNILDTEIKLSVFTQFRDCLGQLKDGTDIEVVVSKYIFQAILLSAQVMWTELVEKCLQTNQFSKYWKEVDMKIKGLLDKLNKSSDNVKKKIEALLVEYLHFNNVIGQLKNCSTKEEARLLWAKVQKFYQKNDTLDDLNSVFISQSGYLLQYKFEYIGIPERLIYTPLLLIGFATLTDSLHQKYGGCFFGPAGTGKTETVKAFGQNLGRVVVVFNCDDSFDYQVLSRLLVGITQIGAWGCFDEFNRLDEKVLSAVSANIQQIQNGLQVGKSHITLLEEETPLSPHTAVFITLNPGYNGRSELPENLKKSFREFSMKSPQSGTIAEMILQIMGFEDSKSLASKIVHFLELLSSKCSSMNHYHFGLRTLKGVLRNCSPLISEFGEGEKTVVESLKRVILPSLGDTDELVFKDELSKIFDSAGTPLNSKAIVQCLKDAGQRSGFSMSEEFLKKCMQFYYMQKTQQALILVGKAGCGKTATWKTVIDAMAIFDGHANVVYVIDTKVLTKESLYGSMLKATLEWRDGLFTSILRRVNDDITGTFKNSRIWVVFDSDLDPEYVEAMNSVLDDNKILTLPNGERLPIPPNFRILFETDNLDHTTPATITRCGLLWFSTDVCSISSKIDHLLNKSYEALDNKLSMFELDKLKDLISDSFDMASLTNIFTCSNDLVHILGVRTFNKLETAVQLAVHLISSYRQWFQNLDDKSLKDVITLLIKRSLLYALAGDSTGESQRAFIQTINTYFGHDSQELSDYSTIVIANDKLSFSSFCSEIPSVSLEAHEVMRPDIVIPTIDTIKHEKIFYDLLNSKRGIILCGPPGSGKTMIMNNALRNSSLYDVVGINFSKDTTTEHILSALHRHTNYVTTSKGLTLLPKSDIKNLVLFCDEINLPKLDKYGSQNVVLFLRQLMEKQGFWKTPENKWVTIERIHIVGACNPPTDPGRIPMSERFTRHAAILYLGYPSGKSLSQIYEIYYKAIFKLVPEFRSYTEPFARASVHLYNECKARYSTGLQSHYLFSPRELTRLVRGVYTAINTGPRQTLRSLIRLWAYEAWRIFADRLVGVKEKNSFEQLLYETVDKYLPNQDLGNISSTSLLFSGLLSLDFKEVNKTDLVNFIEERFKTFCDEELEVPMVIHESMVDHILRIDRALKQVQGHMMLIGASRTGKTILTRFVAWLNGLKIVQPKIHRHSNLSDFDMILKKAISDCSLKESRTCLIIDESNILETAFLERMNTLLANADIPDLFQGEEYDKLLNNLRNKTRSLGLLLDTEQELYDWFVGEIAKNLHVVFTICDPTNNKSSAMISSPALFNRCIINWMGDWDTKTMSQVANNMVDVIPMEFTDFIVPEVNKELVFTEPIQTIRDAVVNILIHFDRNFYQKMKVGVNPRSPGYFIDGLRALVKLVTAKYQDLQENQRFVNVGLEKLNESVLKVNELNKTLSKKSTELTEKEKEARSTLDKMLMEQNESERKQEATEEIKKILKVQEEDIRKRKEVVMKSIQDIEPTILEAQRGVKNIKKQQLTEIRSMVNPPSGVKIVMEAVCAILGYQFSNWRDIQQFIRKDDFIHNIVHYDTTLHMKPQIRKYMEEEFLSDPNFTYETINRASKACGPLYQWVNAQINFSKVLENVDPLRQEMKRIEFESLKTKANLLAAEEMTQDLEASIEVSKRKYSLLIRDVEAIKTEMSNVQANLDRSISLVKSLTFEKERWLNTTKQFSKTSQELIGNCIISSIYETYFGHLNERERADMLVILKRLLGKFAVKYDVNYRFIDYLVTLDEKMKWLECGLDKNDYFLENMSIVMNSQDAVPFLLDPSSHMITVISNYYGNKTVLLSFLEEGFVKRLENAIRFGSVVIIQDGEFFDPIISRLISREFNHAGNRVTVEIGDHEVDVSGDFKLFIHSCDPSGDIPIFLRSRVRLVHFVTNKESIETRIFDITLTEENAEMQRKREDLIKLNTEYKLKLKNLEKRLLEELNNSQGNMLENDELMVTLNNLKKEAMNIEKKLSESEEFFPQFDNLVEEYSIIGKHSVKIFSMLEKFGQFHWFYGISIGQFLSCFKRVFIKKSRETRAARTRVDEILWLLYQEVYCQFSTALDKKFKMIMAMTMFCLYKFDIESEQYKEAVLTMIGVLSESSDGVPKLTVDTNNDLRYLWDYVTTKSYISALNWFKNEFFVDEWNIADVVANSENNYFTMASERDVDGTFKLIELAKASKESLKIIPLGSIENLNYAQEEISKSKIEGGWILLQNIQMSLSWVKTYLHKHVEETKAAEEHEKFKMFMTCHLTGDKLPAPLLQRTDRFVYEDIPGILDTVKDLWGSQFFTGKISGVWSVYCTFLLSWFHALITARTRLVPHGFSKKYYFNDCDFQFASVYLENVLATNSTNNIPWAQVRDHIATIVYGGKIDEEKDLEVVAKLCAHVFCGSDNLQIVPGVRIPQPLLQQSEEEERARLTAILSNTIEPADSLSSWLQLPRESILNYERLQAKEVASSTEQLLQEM

B1: Lis1 (S. cerevisiae Pac1) (natural protein)
chain: MTNWQQQLPLTDTQKNELDKSVLRYLNWNYKQTVRHEHAQDYESVRHAIVTLSGFLLQESVDRQEFISNNDTSNESMVDIDELLLPKKWNSIVRLQKKIIELEQNTETLVSQIKDLNTQVSELAQFKPTTSNGTSAHNVLKWIPRNLPSCLINVESSVTSVKLHPNLPIVFVATDHGKLYAFDLFNYTIPLASLQSHTKAITSMDVLFTNYTNSSKKNYLVIVTASKDLQIHVFKWVSEECKFQQIRSLLGHEHIVSAVKIWQKNNDVHIASCSRDQTVKIWDFHNGWSLKTFQPHSQWVRSIDVLGDYIISGSHDTTLRLTHWPSGNGLSVGTGHEFPIEKVKFIHFIEDSPEIRFRTPSTDRYKNWGMQYCVSASRDRTIKIWEIPLPTLMAHRAPIPNPTDSNFRCVLTLKGHLSWVRDISIRGQYLFSCADDKSVRCWDLNTGQCLHVWEKLHTGFVNCLDLDVDFDSNVTPRQMMVTGGLDCKSNVFMR
K1/2: Lis1 concentration for half-maximal reduction of single-molecule GST-dynein (331 kDa) velocity [1]: 15.3 nM | K1/2: Lis1 concentration for half-maximal velocity reduction (experiment with the AAA4 mutants) [2]: 15.7 nM
